The source of these data is patent publication US20170204158A1 (Regeneron, published 2017).

Several values for one entry are separate records, joined by “and”; a condition that tells them apart may be missing. Identical values can stand only once.

The term Kd denotes the constant that tells how readily two partners part at equilibrium. A word on the koff: it is the rate constant with which the complex falls apart. Broadly, the kon is the second-order rate constant of association. A word on the IC50: it is the concentration at which inhibition is half-maximal.

First the molecules themselves.
B2: monkey IL-33 expressed with C-terminal hexahistidine tag (MfIL-33-6His) (ligand)
chain: SITGISPITESLASLSTYNDQSITFALEDESYEIYVEDLKKDKKKDKVLLSYYESQHPSSESGDGVDGKMLMVTLSPTKDFWLQANNKEHSVELHKCEKPLPDQAFFVLHNRSFNCVSFECKTDPGVFIGVKDNHLALIKVDYSENLGSENILFKLSEILEHHHHHH

The target of assay [1] is T1, mouse IL-33 (R&D Systems, # 3626-ML-010/CF) (mouse, UniProt Q8BVZ5 109-266).
T1 construct: Commercial protein; also called mIL-33; mIL33
T1 sequence (looked up): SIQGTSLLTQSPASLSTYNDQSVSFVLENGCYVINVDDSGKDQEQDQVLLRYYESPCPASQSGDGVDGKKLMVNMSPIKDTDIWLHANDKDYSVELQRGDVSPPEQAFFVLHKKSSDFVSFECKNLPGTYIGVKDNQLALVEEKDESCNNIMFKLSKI
Briefly: SPR (Biacore T-200), 25 C; Fc fusion captured by anti-Fc antibody, mouse IL-33 injected. How it is done: (§1) The Biacore sensor surface was first derivatized by amine coupling a polyclonal rabbit anti-mouse antibody (GE, # BR-1008-38) or with a monoclonal mouse anti-human Fc antibody (GE, # BR-1008-39) to capture IL-33 Trap and receptor proteins with a C-terminal mouse IgG2a Fc tag or a C-terminal human IgG1 Fc tag, respectively. Kinetic experiments were carried out in 0.01 M HEPES pH 7.4, 0.15 M NaCl, 3 mM EDTA, and 0.005% v/v Surfactant Tween-20 (HBST running buffer). Different concentrations of human IL-33, mouse IL-33 or MfIL-33-6His prepared in HBST running buffer (ranging from 60 nM to 27.4 pM, 3-fold dilutions, for Trap proteins and ranging from 60 nM to 0.25 nM, 3-fold dilutions, for ST2 receptor proteins) were injected over the captured IL-33 Trap and receptor protein surfaces at a flow rate of 50 μL/minute. Association of different IL-33 proteins to the different capture surfaces was monitored for 7 minutes for Trap proteins or 4 minutes for ST2 receptor proteins and their dissociation in HBST running buffer was monitored for 14 minutes for Trap proteins or 8 minutes for ST2 receptor proteins. Kinetic association (ka) and dissociation (kd) rate constants were determined by fitting the real-time binding sensorgrams to a 1:1 binding model using Scrubber 2.0c curve-fitting software. Binding dissociation equilibrium constants (KD) and dissociative half-lives (t½) were calculated from the kinetic rate constants as: […]
(In general: In SPR one partner is held on a chip, and binding of the other changes the refractive index at the surface.)

Assay [2] addresses T1, mouse IL-33 (R&D Systems, # …). Put plainly: cell-based or functional assay.
In assay [3] the target is B2. Briefly: cell-based or functional assay.
The target in assay [4] is T2, human IL-33 (R&D Systems, # 3625-IL-010/CF) (human, UniProt O95760 112-270, biotinylated in the blocking ELISA of Example 3 (sites not given)).
T2 sequence (looked up): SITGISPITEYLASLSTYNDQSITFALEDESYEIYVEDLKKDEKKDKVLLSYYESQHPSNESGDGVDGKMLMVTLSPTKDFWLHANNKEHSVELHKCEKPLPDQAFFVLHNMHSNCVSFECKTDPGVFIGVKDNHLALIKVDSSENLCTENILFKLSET
Put plainly: cell-based or functional assay.

Assay [5] addresses B2. Put plainly: SPR (Biacore T-200), 37 C; Fc fusion captured by anti-Fc antibody, MfIL-33-6His injected. How it is done: as §1
For assay [6], the target named is T2, human IL-33 (R&D Systems, # …). Put plainly: SPR (Biacore T-200), 37 C; Fc fusion captured by anti-Fc antibody, IL-33 injected. How it is done: as §1
The target is the same in assay [7]. Briefly: competition ELISA; antagonist pre-mixed with 20 pM biotin-hIL-33, binding to plate-coated human ST2-Fc; highest concentration tested. Here is the method:
(§2) The ability of exemplary IL-33 antagonists of the invention to block human IL-33 (hIL-33) binding to the human ST2 receptor was measured using a competition sandwich ELISA. A portion of human ST2 protein ecto domain that was expressed with a C-terminal mouse Fc tag (SEQ ID NO:2) was coated at a concentration of 1 μg/mL in PBS buffer on a 96-well microtiter plate overnight at 4° C. […] Biotinylated hIL-33 protein (R&D systems, #3625-IL/CF) (biot-hIL-33) was added to achieve a constant final concentration of 20 pM to serial dilutions of IL-33 antagonists ranging from 0 to 100 nM. The mixture was incubated for 1 hour at room temperature (RT) before transfer to the hST2-hFc coated microtiter plates. After incubation for 1 hour at RT, the wells were then washed, and plate-bound biot-hIL-33 was detected with HRP-conjugated streptavidin (Thermo Scientific, # N200). All samples were developed with a TMB solution (BD biosciences, # 51-2607KC) to produce a colorimetric reaction and then quenched by acidification with 1M sulfuric acid before measuring absorbance at 450 nm on a Victor X5 plate reader (PerkinElmer). Data analysis was performed using a sigmoidal dose-response model within Prism™ software. […] Maximum blocking values represent the ability of the antagonists to block IL-33 binding relative to baseline. The absorbance measured at the constant amount of hIL-33 on the dose curve was defined as 0% blocking and the absorbance with no added IL-33 was defined as 100% blocking. The absorbance values of the wells containing the highest concentration tested for each antagonist were used to determine the maximum blocking percent.
(In general: An ELISA detects its analyte on a solid surface through an enzyme-linked reagent.)

Assay [8] has as its target B2. Put plainly: SPR (Biacore T-200), 25 C; Fc fusion captured by anti-Fc antibody, MfIL-33-6His injected. Here is the method:
as §1

Assay [9] deals with T2, human IL-33 (R&D Systems, # …). Put plainly: SPR (Biacore T-200), 25 C; Fc fusion captured by anti-Fc antibody, IL-33 injected. Here is the method: as §1
Assay [10] has the same target. Put plainly: competition ELISA; antagonist pre-mixed with 20 pM biotin-hIL-33, binding to plate-coated human ST2-Fc. Here is the method:
as §2

Assay [11] deals with T1, mouse IL-33 (R&D Systems, # …). Briefly: SPR (Biacore T-200), 37 C; Fc fusion captured by anti-Fc antibody, mouse IL-33 injected. How it is done:
as §1

Assay [12] has as its target T3, human ST2 (amino acids 1-556 of accession number NP_057316) on HEK293/hST2/NFkB-luciferase cells (human, UniProt Q01638 19-556).
T3 sequence (looked up): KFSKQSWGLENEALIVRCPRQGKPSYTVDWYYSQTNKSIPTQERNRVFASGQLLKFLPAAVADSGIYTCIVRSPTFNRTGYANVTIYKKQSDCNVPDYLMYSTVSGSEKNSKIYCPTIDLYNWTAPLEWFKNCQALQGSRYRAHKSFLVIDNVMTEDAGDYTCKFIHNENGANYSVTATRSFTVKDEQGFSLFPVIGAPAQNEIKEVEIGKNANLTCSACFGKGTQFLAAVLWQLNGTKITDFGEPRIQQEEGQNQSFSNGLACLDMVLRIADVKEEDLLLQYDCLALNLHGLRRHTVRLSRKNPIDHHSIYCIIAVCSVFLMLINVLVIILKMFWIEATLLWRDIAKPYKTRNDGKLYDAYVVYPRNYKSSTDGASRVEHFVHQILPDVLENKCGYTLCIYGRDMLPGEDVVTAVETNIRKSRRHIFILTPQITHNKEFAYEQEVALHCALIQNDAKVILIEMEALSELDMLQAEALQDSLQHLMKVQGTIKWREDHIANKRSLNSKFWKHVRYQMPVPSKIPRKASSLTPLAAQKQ
Put plainly: cell-based or functional assay.

B1: mST2-mIL1RAcP-mFc (Fc fusion)
chain: SKSSWGLENEALIVRCPQRGRSTYPVEWYYSDTNESIPTQKRNRIFVSRDRLKFLPARVEDSGIYACVIRSPNLNKTGYLNVTIHKKPPSCNIPDYLMYSTVRGSDKNFKITCPTIDLYNWTAPVQWFKNCKALQEPRFRAHRSYLFIDNVTHDDEGDYTCQFTHAENGTNYIVTATRSFTVEEKGFSMFPVITNPPYNHTMEVEIGKPASIACSACFGKGSHFLADVLWQINKTVVGNFGEARIQEEEGRNESSSNDMDCLTSVLRITGVTEKDLSLEYDCLALNLHGMIRHTIRLRRKQPIDHRSERCDDWGLDTMRQIQVFEDEPARIKCPLFEHFLKYNYSTAHSSGLTLIWYWTRQDRDLEEPINFRLPENRISKEKDVLWFRPTLLNDTGNYTCMLRNTTYCSKVAFPLEVVQKDSCFNSAMRFPVHKMYIEHGIHKITCPNVDGYFPSSVKPSVTWYKGCTEIVDFHNVLPEGMNLSFFIPLVSNNGNYTCVVTYPENGRLFHLTRTVTVKVVGSPKDALPPQIYSPNDRVVYEKEPGEELVIPCKVYFSFIMDSHNEVWWTIDGKKPDDVTVDITINESVSYSSTEDETRTQILSIKKVTPEDLRRNYVCHARNTKGEAEQAAKVKQKVIPPRYTVESGEPRGPTIKPCPPCKCPAPNLLGGPSVFIFPPKIKDVLMISLSPIVTCVVVDVSEDDPDVQISWFVNNVEVHTAQTQTHREDYNSTLRVVSALPIQHQDWMSGKEFKCKVNNKDLPAPIERTISKPKGSVRAPQVYVLPPPEEEMTKKQVTLTCMVTDFMPEDIYVEWTNNGKTELNYKNTEPVLDSDGSYFMYSKLRVEKKNWVERNSYSCSVVHEGLHNHHTTKSFSRTPGK
notes: also called fourth IL-33 antagonist; mouse IL-33 Trap
As for B1, in [1], the “60 nM Mouse IL-33 Bound (RU)” value was determined as 22 RU, the Kd was found to be 0.0105 nM, the koff came to 4.94e-05 s⁻¹ and the kon worked out at 4.73e+06 M⁻¹ s⁻¹. The molecule also gave a t1/2 in assay [1] of 234 min. Besides, in [2], the “IC50 (M), inhibition of 30 pM mouse IL-33 activation of HEK293/hST2/NFkB-luciferase cells” value was determined as 8.7e-12 M. The “IC50 (M), inhibition of 5 pM monkey IL-33 activation of HEK293/hST2/NFkB-luciferase cells” value in [3] was 6.4e-11 M. Moreover, the “IC50 (M), inhibition of 5 pM human IL-33 activation of HEK293/hST2/NFkB-luciferase cells” value in [4] came out at 4.8e-10 M. In [5], the “60 nM Monkey IL-33 Bound (RU)” value came to 21 RU, binding was put at a Kd of 0.19 nM, the koff was determined as 0.00117 s⁻¹ and the kon amounted to 6.16e+06 M⁻¹ s⁻¹. Also, the t1/2 in assay [5] was 10 min. Also, in assay [6], the “60 nM Human IL-33 Bound (RU)” value amounted to 20 RU, the Kd was determined as 0.353 nM, the koff is 0.00322 s⁻¹ and the kon came out at 9.11e+06 M⁻¹ s⁻¹. Moreover, the t1/2 in [6] turned out to be 4 min. The “% Maximum blocking” value in assay [7] is 97%. In assay [8], the “60 nM Monkey IL-33 Bound (RU)” value was 23 RU, binding was characterised by a dissociation constant (Kd) of 0.0535 nM, the koff was found to be 0.000244 s⁻¹ and the kon was found to be 4.55e+06 M⁻¹ s⁻¹. Besides, in assay [8], the t1/2 came out at 47 min. In assay [9], the “60 nM Human IL-33 Bound (RU)” value was determined as 22 RU; the affinity, expressed as Kd, was 0.0709 nM; the koff stood at 0.00129 s⁻¹; the kon was 1.82e+07 M⁻¹ s⁻¹. In addition, the t1/2 in assay [9] was found to be 9 min. This molecule also returned an IC50 in assay [10] of 0.112 nM. For the same molecule, in assay [11], the “60 nM Mouse IL-33 Bound (RU)” value came to 20 RU, binding was put at a Kd of 0.0213 nM, the koff was determined as 0.000128 s⁻¹ and the kon was 6e+06 M⁻¹ s⁻¹. This molecule registered a t1/2 in assay [11] of 90 min.
As to B2, the “EC50 (M), activation of HEK293/hST2/NFkB-luciferase cells” value in assay [12] was 1.7e-12 M and 1.3e-12 M.
